According to patent US12419977B2, “Radiopharmaceuticals” (AdvanCell Isotopes Pty Limited, priority 2022, dated 2025):

System: PC3-PIP (PSMA expressing) and PC3 (PSMA deficient) tumours
Parameters: species or system male BALB/c nude mice
Settings: mouse, in vivo
Protocol: In vivo biodistribution studies of [^212Pb]Pb-ADVC001 were performed using an animal model of prostate cancer. Tumour xenographs were grown on opposite flanks of male BALB/c nude mice after inoculation with 10^6 PC3-PIP (PSMA expressing) and PC3 (PSMA deficient) cell lines. In this model, the PC3 tumours act as a control to assess the specificity of [^212Pb]Pb-ADVC001 uptake within PSMA expressing tumours. Once the tumours had reached 5-10 mm in size, 3 groups (representing 3 different time points) of 5 mice were injected with 300-325 kBq of [^212Pb]Pb-ADVC001 via the lateral tail vein. At 1, 4 and 24 hours after injection, mice were euthanised and multiple organs collected and weighed. Radioactivity in each organ was counted using a well-type gamma counter (counting window 218-258 keV). Activity levels of [^212Pb]Pb-ADVC001 expressed as percent injected dose/gram of tissue (% ID/g) measured from each organ over the 3 time points are given in Table 1 with the biodistribution plots presented in FIG. 1A. Activity accumulation over time of [^212Pb]Pb-ADVC001 for major organs (kidney, liver and bone marrow) along with tumour uptake is provided in FIG. 3. […] The biodistribution of [^212Pb]Pb-PSMA-I&T expressed as percent injected dose/gram of tissue (% ID/g) measured from each organ over the 3 time points is presented in FIG. 1B. […]

## NC(=O)CN1CCN(CC(N)=O)CCN(C(CCC(=O)N[C@H](Cc2ccc(O)c(I)c2)C(=O)N[C@H](Cc2ccccc2)C(=O)N[C@H](CCCCNC(=O)CCCCCCC(=O)NCCCC[C@H](NC(=O)N[C@@H](CCC(=O)O)C(=O)O)C(=O)O)C(=O)O)C(=O)O)CCN(CC(N)=O)CC1 (stereo partly shown) [[^212Pb]Pb-ADVC001, metal not drawn]
  tumour to kidney activity ratio: significantly higher
